Measured values from patent EP1192182B1, “PITUITARY ADENYLATE CYCLASE ACTIVATING PEPTIDE (PACAP) RECEPTOR 3 (R3) AGONISTS AND THEIR PHARMACOLOGICAL METHODS OF USE” (priority 1999, dated 2001).
No end group written: not given here.

T1: PACAP-R3 (human, UniProt P41587 24-438)
T1 sequence (looked up): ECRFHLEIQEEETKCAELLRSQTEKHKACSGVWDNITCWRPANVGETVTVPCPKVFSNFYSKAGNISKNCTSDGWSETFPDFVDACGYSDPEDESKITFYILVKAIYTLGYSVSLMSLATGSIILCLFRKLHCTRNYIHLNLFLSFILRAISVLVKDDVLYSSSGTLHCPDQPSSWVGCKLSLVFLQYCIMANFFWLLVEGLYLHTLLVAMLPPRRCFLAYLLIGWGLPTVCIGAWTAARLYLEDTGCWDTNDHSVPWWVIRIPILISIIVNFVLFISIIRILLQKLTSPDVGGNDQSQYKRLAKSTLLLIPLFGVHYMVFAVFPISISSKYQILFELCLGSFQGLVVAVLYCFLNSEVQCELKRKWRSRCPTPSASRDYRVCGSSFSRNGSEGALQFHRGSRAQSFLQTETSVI


target: T1, PACAP-R3; experiment: cell-based or functional assay

R3 Selectivity	Binder
500 ratio	HSDAVFTDNYTRLRKQVAAKKYLQSIKKKR [R3P77]
230 ratio	HSDAVFTDNYTRLRKQVAAKKYLNSIKKKR [R3P78]
190 ratio	HSDAVFTDNYTRLRKQMAVKKYLNSIKKKR [R3P57]
> 600 ratio	HSDAVFTDQYTRLRKQLAAKKYLNTIKNKRY [R3P72]
> 500 ratio	HSDAVFTDQYTRLRKQLAAHKYLNTIKNKRY [R3P75]
330 ratio	HSDAVFTDNYTRLRKQLAAKKYLNTIKNKRY [R3P67]
> 250 ratio	HSDAVFTDNYTRLRKQMAAKKYLNTIKNKRY [R3P70]
170 ratio	HSDAVFTDNYTRLRKQMAAHKYLNSIKNKRY [R3P73]
660 ratio	HSDAVFTDQYTRLRKQMAAKKYLNSIKNKRY [R3P71]
70 ratio	HSDAVFTDNYTRLRKQMAVKKYLNSIKNKRY [R3P59]
190 ratio	HSDAVFTDNYTRLRKQMAAKKYLQSIKNKRY [R3P69]
150 ratio	HSDAVFTDNYTRLRKQMAAKHYLNSIKNKRY [R3P74]
250 ratio	HSDAVFTDNYTRLRKQVAAKKYLQSIKNKRY [R3P66]
170 ratio	HSDAVFTDNYTRLRKQMAVKKYLNSIKKK [R3P58]
120 ratio	HSDAVFTDNYTRLRKQVAAKKYLQSIKK [R3P60]
130 ratio	HSDAVFTDNYTRLRKQMAAKKYLNSIKNKR [R3P65]
140 ratio	HSDAVFTDNYTRLRKQIAAKKYLQTIKK [R3P61]
100 ratio	HSDAVFTDNYTRLRKQVAAKKYLNSIKK [R3P62]

More lines, now with the values behind:

Binder	R3 Selectivity
HSDAVFTENYTKLRKQLAAKKYLNDLKK [R3P5]	30 ratio
HSDAVFTDNYTRLRKQMAAKKYLNSILK [R3P50]	6 ratio
HSDAVFTDNYTRLRKQMAAKKYLNSIKKKR [R3P53]	2500 ratio
HSDAVFTDNYTRLRKQMAAKKYLNSIKKK [R3P54]	> 200 ratio
HSDAVFTDNYTRLRKQLAAKKYLNDILKGGT [R3P23]	23 ratio
HSDAVFTDNYTRLRKQLAAKKYLNDILNGGT [R3P27]	8 ratio
HSDAVFTDNYTRLRKQLAVKKYLNDILKGGT [R3P28]	1 ratio
HSDAVFTDNYTRLRKQMAAKKYLNSIKKKRY [R3P52]	> 250 ratio
HSDAVFTDNYTRLRKQMAAKKYLNSIKNKRY [R3P55]	280 ratio
HSDAVFTDNYTRLRKQMAVKKYLNSIKKKRY [R3P56]	100 ratio
HSDGIFTESYSRYRKQMAVKKYLAALKKKRYKQRVKNK [R3P6]	3 ratio
HSDGIFTDSYSRYRKQMAVKKYLAAVKQGGT-NH2 [R3P16]	1.4 ratio
HSDAVFTDNYTRLRKQMAVKKYLNDILN [R3P48]	8 ratio
HSDAVFTDNYTRLRKQMAVKKYLNSIKK-NH2 [R3P8]	1.5 ratio
HSDAVFTDNYTRLRKQMAAKKYLNSILN [R3P47]	6 ratio
HSDAVFTDNYTRLRKQLAVKKYLNSILN [R3P46]	7 ratio
HSDAVFTENYTKLRKQLAAKKYLNDLKKGGT [R3P3]	130 ratio
HSDGIFTDSYSRYRKQMAVKKYLAAVKKYLAAVRHG-NH2 [R3P17]	2 ratio
HSDGIFTDSYSRYRKQMAVKKYLAAVKK [R3P40]	2 ratio
HSDGIFTDSYSRYRKQLAVKKYLAAVKK [R3P39]	2 ratio
Ac-HSDAVFTENYTKLRKQLAAKKYLNDLKKGGT (ends and bridges not checked) [R3P2]	> 300 ratio
HSDAVFTDNYTRLRKQMAAKKYLNSIKK [R3P51]	90 ratio
HSDGIFTDSYSRYRKQLAAKKYLADVKK [R3P38]	7 ratio
HSDGIFTDSYSRYRKQLAAKKYLADVKKGGT [R3P37]	18 ratio
HSDAVFTENYTRLRKQMAVKKYLNSLKK-NH2 [R3P7]	0.5 ratio
HSDAVFTDNYTRLRKQMAAKKYLNSIKN [R3P49]	30 ratio
